The results in this text go back to patent publication US20240101668A1 (WUGEN, published 2024).

Changes are numbered by the printed parent chain.

First the molecules themselves.
B1: Polypeptide No. 208 (scFv, V domains shown)
VH: QVQLVQSGAEVKKPGASVKVSCKASGGTFSSRSISWVRQAPGQGLEWMGIINPSGGGTLYAQKFQGRVTMTRDTSTSTVYMELSSLRSEDTAVYYCAKDMDGWSDAFDIWGQGTTVTVSS
VL: EIVMTQSPATLSVSPGERATLSCRASQSLSNIYLAWYQQKPGQAPRLLIYDVSSRAAGIPARFSGSGSGTEFTLTISSLQSEDFAVYYCQQYATSPLTFGGGTKVEIKR
notes: scFv
B2: Polypeptide No. 212 (scFv, V domains shown)
VH: QVQLVQSGAEVKKPGSSVKVSCKASGYTFTGYYMHWVRQAPGQGLEWMGGIIPILGTANNAQKFQGRVTITADESTSTAYMELSSLRSEDTAVYYCARAPWGTFDYWGQGTLVTVSS
VL: EIVMTQSPATLSVSPGERATLSCRASQSVSSSQLAWYQQKPGQAPRLLIYDTSTRATGIPARFSGSGSGTEFTLTISSLQSEDFAVYYCQQYDNSLWTFGQGTRLEIKR
notes: scFv
B3: Polypeptide No. 207 (scFv, V domains shown)
VH: QVQLVQSGAEVKKPGASVKVSCKASGYTFTNYYMHWVRQAPGQGLEWMGWMNPNSGNTGYAQRFQGRVTMTRDTSTSTVYMELSSLRSEDTAVYYCAKSHYYYFYGMDVWGQGTTVTVSS
VL: DIQMTQSPSSLSASVGDRVTITCQASHDISKYLNWYQQKPGKAPKLLIYAASILQSGVPSRFSGSGSGTDFTLTISSLQPEDFATYYCQQSYSTPYTFGQGTKLEIKR
notes: scFv
B4: Polypeptide No. 215 (scFv, V domains shown)
VH: QVQLVQSGAEVKKPGASVKVSCKASGYTFTGYRMHWVRQAPGQGLEWMGWINPNSGGTNYAQKFQGRVTMTRDTSTSTVYMELSSLRSEDTAVYYCAKGGLDWRNWYFDLWGRGTLVTVSS
VL: B3 VL with Q24R, H27Q, D28G, K31S, N34A, I53T, Y96L, Q100G, L104V
notes: scFv
B5: Polypeptide No. 213 (scFv, V domains shown)
VH: QVQLVQSGAEVKKPGASVKVSCKASGYTFSRYYMSWVRQAPGQGLEWMGWMNPNSGNTGYAQKFQGRVTMTRDTSTSTVYMELSSLRSEDTAVYYCARTRFAAQPHNWHFDLWGRGTLVTVSS
VL: DIQMTQSPSSLSASVGDRVTITCRASQSISSYLNWYQQKPGKAPKLLIYDASNLKTGVPSRFSGSGSGTDFTLTISSLQPEDFATYYCQQSYSTPLTFGPGTKVDIKR
notes: scFv
B6: Polypeptide No. 135 (scFv, V domains shown)
VH: QVQLVQSGAEVKKPGASVKVSCKASGYSFTTYGITWVRQAPGQGLEWMGWINPNSGNAGYAQKFQGRVTMTRDTSTSTVYMELSSLRSEDTAVYYCASDLAGYSSGYFDLWGRGTLVTVSS
VL: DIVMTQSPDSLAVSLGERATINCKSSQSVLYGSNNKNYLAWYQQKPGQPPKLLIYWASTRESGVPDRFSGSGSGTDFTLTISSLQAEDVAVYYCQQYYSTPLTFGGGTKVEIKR
notes: scFv
B7: Polypeptide No. 142 (scFv, V domains shown)
VH: EVQLLESGGGLVQPGGSLRLSCAASGFTFSSYWMHWVRQAPGKGLEWVAVISYDGSDKYYADSVKGRFTISRDNSKNTLYLQMNSLRAEDTAVYYCARGLGGTTGTADFDYWGQGTLVTVSS
VL: not shown
notes: scFv
B8: Polypeptide No. 141 (scFv, V domains shown)
VH: QVQLVQSGAEVKKPGASVKVSCKASGGTFSSYAISWVRQAPGQGLEWMGVISPNGDTTVYAQKFQGRVTMTRDTSTSTVYMELSSLRSEDTAVYYCARDRGVAHSYYYGMDVWGQGTLVTVSS
VL: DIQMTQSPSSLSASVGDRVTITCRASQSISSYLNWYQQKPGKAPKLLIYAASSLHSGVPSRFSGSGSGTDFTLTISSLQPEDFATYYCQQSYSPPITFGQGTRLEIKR
notes: scFv
B9: Polypeptide No. 137 (scFv, V domains shown)
VH: QVQLVQSGAEVKKPGASVKVSCKASGYTFTDYYIHWVRQAPGQGLEWMGMVNPSGGSANYAQKFQGRVTMTRDTSTSTVYMELSSLRSEDTAVYYCAKDSAWQEPYYFDYWGQGTLVTVSS
VL: B5 VL with S28G, N34A, K55D, P100G, D105E
notes: scFv
B10: Polypeptide No. 136 (scFv, V domains shown)
VH: QVQLVQSGAEVKKPGASVKVSCKASGDTLTNHFVHWVRQAPGQGLEWMGWMNPNSGNTGYAQKFQGRVTMTRDTSTSTVYMELSSLRSEDTAVYYCARDPQMGAVAGGFDYWGQGTLVTVSS
VL: B5 VL with S28R, S30G, S31N, Y32W, N34A, D50A, N53S, K55Q, T56S, T94P
notes: scFv
B11: Polypeptide No. 143 (scFv, V domains shown)
VH: QVQLVQSGAEVKKPGASVKVSCKASGYTFTGYYMHWVRQAPGQGLEWMGWMNANSGNTGFAQKFQGRVTMTRDTSTSTVYMELSSLRSEDTAVYYCARDSSSWLSGGGWFDPWGQGTLVTVSS
VL: B3 VL with Q24R, H27Q, D28S, S30G, K31T, N34S, I53S, T94S, Y96I
notes: scFv
B12: Polypeptide No. 139 (scFv, V domains shown)
VH: QVQLVQSGAEVKKPGASVKVSCKASGYTLSDHDINWVRQAPGQGLEWMGWMNPSTGNTGYAQKFQGRVTMTRDTSTSTVYMELSSLRSEDTAVYYCERDQLRFGAWFDPWGQGTLVTVSS
VL: DIQMTQSPSSLSASVGDRVTITCRASQGIRNYLAWYQQKPGKAPKLLIYAASSLQSGVPSRFSGSGSGTDFTLTISSLQPEDFATYYCQQSYSIPLTFGGGTKVEIKR
notes: scFv
B13: Polypeptide No. 140 (scFv, V domains shown)
VH: EVQLVESGGGLVKPGGSLRLSCAASGITVSSSWMHWVRQAPGKGLEWVSAIGTGGGTHYADSVKGRFTISRDDSKNTLYLQMNSLKTEDTAVYYCARDQGGQIDHWGQGTLVTVSS
VL: B12 VL with G28S, R30S, N31S, Y32W, A50D, S53T
notes: scFv
B14: Polypeptide No. 138 (scFv, V domains shown)
VH: QVQLVQSGAEVKKPGASVKVSCKASGYTFSSYDMHWVRQAPGQGLEWMGVINPGGGYTNYAQKFQGRVTMTRDTSTSTVYMELSSLRSEDTAVYYCARDEGWELLLDYWGQGTLVTVSS
VL: EIVMTQSPATLSVSPGERATLSCRASQSVGSNLAWYQQKPGQAPRLLIYGASTRATGIPARFSGSGSGTEFTLTISSLQSEDFAVYYCQQSHSLPPTFGQGTRLEIKR
notes: scFv

T4 sequence (P20138 18-364): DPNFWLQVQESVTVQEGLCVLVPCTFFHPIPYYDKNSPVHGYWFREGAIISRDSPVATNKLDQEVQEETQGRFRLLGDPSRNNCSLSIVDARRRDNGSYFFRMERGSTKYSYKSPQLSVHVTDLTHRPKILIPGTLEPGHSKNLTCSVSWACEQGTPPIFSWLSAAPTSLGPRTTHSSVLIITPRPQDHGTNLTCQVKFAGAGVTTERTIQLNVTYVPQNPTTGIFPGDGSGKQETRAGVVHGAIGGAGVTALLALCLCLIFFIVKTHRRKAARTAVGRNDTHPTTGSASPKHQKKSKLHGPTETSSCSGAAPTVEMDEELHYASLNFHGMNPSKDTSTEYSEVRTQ

The first assay concerns the target T1, huFLT3-T227 stably expressed on Ramos cells (human, UniProt P36888 27-993).
T1 construct: whole, on cells; also called FLT3 WT
As to the kind of experiment: FACS on cells.
For the molecule B1, the “FACS geometric mean fold change over Jurkat parental” value (shortened to “FACS geometric mean fold change”) fell in the range of 10 to 30 fold.
On to B2, for which the “FACS geometric mean fold change” value is 10 to 30 fold.
With B3, the “FACS geometric mean fold change” value was in the range of 10 to 30 fold.
On the same count and under the same terms, in the case of B4 it was 10 to 30 fold.
Same read-out and setting: for B5 the value was 10 to 30 fold.

Another assay deals with T2, huFLT3-M227 stably expressed on Ramos cells (human, UniProt P36888 27-993).
T2 construct: whole, on cells; also called FLT3 Mutant
As to the kind of experiment: FACS on cells.
Regarding B1, the “FACS geometric mean fold change” value was in the range of 10 to 30 fold.
On the same count and under the same terms, in the case of B2 it was 10 to 30 fold; in that of B3, 10 to 30 fold.
With B4, the “FACS geometric mean fold change” value fell in the range of 10 to 30 fold.
Regarding B5, the “FACS geometric mean fold change” value is 10 to 30 fold.

In a further assay the target is T3, huCD33-G69 stably expressed on Jurkat cells (human, UniProt P20138 18-364).
T3 construct: whole, on cells; >200,000 receptors per cell; also called CD33 Mutant; CD33 R69G
T3 sequence (P20138 18-364 R69G): as the sequence (P20138 18-364) above, with R52G counted along it
As to the kind of experiment: FACS on cells.
Procedure: (§1) Jurkat cells were engineered to stably express either the huCD33-R69 or huCD33-G69 variant at >200,000 receptors per cell. Parental, huCD33-R69, and huCD33-G69 Jurkat cell lines were stained with differing levels of CellTrace Violet Cell Proliferation Kit (ThermoFisher, cat. #C34557) to barcode each cell line. Barcoded Jurkat cell lines were fixed with paraformaldehyde and incubated with myc-labeled scFv periplasmic extracts and a secondary anti-myc PE-conjugated monoclonal antibody. Appropriate positive and negative controls were used. Stained cells were analyzed by flow cytometry (CytoFLEX, Beckman Coulter, Inc.) and binding was assessed by change in PE mean fluorescence intensity (MFI) of the barcoded cell populations.
(§2) Data is disclosed below in Table 16c, reporting FACS fold change over parental as (−), indicating <2 fold; (+), indicating 2-10 fold; (++), indicating 10-30 fold; and (+++), indicating >30 fold.
Turning to B6, the “FACS geometric mean fold change” value was above 30 fold.
Still for that read-out and setting: in the case of B7 it was 2 to 10 fold.
Still for that read-out and setting: in the case of B8 it was above 30 fold; in that of B9, above 30 fold; in that of B10, 10 to 30 fold.
On the same count and under the same terms, in the case of B11 it was 2 to 10 fold; in that of B12, above 30 fold; in that of B13, 2 to 10 fold.
With B14, the “FACS geometric mean fold change” value fell in the range of 10 to 30 fold.

A further assay concerns the target T4, huCD33-R69 stably expressed on Jurkat cells (human, UniProt P20138 18-364).
T4 construct: whole, on cells; >200,000 receptors per cell; also called CD33 WT; CD33^ARG69
Put plainly: FACS on cells.
Procedure: as §1, §2
As to B6, the “FACS geometric mean fold change” value was 10 to 30 fold.
On the same count and under the same terms, for B7 the value was 2 to 10 fold; for B8, 10 to 30 fold.
The same measure, in the same setting: in the case of B9 it was above 30 fold; in that of B10, 10 to 30 fold.
On the same count and under the same terms, for B11 the value was 2 to 10 fold; for B12, above 30 fold.
Consider B13, for which the “FACS geometric mean fold change” value was in the range of 2 to 10 fold.
Same read-out and setting: in the case of B14 it was 10 to 30 fold.

For another assay, the target named is T5, huCD33-G69-Fc recombinant protein (human, UniProt P20138 18-259).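 Also: biolayer interferometry: scFvs captured from periplasmic extracts on anti-V5-loaded streptavidin biosensors, antigen association for 2 min, buffer dissociation for 5 min, 1:1 Langmuir fit giving off-rate.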
T5 construct: extracellular domain; also called CD33 R69G
T5 sequence (P20138 18-259 R69G): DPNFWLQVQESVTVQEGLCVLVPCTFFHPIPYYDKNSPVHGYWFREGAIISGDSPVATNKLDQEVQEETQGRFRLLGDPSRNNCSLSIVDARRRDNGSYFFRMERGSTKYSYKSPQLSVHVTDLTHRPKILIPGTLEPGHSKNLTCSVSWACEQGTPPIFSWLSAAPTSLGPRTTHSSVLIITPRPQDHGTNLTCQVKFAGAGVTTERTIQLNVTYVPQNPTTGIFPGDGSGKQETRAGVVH
As to the kind of experiment: BLI. (Biolayer interferometry detects binding as a change in optical thickness at a sensor tip.)
B6: the binding result was “binds”.
In the case of B7, the binding result was “binds”.
The same measure, in the same setting: in the case of B8 it was “binds”; in that of B9, “binds”; in that of B10, “binds”.
With B11, the binding result is reported as “binds”.
The same measure, in the same setting: in the case of B12 it was “binds”; in that of B13, “binds”; in that of B14, “binds”.
